Data taken from patent US20200140815A1 (CRISPR THERAPEUTICS, published 2020).

Key:
[1] = target: T1, human protein tyrosine kinase 7 (PTK7) (human, UniProt Q13308 31-1070); assay: flow cytometry dose titration (200 nM-0.0032 nM) on human Saos2, A498 and HCC70 cells; secondary APC-conjugated human IgG-Fc antibody
T1 construct: whole, on cells; also called humPTK7; colon carcinoma kinase 4 (CCK4)
T1 sequence (looked up): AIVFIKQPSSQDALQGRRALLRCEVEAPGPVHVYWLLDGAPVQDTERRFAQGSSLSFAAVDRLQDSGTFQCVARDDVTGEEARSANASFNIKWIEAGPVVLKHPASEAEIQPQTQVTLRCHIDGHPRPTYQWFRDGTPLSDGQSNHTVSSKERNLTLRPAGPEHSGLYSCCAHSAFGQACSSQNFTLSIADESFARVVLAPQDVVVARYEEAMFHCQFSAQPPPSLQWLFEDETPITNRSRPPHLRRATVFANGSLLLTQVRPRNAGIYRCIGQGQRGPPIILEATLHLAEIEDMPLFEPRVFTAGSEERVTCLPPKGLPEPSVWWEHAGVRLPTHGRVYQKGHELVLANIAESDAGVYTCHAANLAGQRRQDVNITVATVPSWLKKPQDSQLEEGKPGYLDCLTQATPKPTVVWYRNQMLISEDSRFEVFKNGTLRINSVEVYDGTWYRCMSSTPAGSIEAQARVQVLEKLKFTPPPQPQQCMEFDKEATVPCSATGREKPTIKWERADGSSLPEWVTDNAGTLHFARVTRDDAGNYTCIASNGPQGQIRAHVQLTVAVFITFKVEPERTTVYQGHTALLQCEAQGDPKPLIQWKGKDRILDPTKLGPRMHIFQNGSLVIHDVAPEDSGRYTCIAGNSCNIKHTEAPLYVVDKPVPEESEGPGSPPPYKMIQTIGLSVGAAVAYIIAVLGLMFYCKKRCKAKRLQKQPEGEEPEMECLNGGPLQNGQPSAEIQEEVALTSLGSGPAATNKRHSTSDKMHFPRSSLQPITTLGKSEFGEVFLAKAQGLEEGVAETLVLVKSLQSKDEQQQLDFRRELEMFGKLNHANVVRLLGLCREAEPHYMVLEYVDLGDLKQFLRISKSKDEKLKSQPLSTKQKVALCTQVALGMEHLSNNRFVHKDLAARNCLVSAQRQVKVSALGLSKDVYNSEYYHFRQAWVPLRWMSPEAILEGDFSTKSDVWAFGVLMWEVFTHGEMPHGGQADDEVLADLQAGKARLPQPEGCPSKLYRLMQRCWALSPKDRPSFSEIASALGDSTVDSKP
Experimental: (§1) To evaluate the species cross reactivity of the custom CTX181 antibody, its binding affinity was assessed in murine 3T3L1 fibroblast and murine M158 breast cancer cell lines and compared to its binding affinity in human Saos2 (osteosarcoma), A498 (renal carcinoma) and HCC70 (breast cancer) cell lines. For each cell line, a dose titration binding assay (200 nM-0.0032 nM final CTX181 antibody) was run on 2×10⁶ cells at each concentration. Cells were stained 30 min on ice with CTX181 antibody, followed by washing and 15 min stain at RT with secondary APC fluorophore conjugated human IgG-Fc antibody. Cells were assessed for staining on a Novocyte flow cytometer (Acea Biosciences).

murine PTK7 = target: T2, murine PTK7 (murine, UniProt Q8BKG3 23-1062); assay: flow cytometry dose titration (200 nM-0.0032 nM) on murine 3T3L1 and M158 cells; secondary APC-conjugated human IgG-Fc antibody
T2 construct: whole, on cells; also called mouse antigen; PTK7 on murine 3T3L1 and M158 cells
T2 sequence (looked up): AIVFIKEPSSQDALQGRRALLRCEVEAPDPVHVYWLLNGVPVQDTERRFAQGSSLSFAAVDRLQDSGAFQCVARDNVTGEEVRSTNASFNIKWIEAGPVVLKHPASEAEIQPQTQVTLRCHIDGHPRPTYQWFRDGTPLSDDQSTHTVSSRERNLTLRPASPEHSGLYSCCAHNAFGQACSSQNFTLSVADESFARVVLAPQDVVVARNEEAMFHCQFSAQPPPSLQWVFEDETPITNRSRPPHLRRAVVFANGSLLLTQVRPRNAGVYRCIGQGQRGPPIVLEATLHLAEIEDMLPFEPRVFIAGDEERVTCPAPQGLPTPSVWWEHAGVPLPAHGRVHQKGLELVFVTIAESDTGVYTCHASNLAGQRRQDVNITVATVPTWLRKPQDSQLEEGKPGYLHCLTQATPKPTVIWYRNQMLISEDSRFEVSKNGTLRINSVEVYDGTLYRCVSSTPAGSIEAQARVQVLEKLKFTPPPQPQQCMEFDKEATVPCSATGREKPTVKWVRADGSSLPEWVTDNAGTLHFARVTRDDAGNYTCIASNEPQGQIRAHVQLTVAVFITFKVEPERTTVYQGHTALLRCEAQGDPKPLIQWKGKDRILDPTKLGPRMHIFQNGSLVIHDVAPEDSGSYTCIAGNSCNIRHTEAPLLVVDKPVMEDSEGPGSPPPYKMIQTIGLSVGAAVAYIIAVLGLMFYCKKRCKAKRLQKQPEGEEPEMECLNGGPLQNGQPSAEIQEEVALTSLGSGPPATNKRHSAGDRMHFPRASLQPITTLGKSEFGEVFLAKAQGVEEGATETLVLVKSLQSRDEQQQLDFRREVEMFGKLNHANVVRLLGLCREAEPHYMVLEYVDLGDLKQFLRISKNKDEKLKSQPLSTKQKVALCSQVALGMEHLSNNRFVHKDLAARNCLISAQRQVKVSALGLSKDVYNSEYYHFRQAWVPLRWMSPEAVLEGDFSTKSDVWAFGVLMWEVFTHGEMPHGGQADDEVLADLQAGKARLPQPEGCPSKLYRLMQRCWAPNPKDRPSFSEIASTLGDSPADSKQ
Experimental: as §1

B1: CTX181 mAb (custom recombinant monoclonal anti-PTK7 antibody, Creative Biolabs) (antibody, human IgG1, kappa, V domains shown)
VH: QVQLVESGGGVVQPGRSLRLSCAASGFTFSSYGMHWVRQAPGKGLEWVAVIWDDGSNKYYVDSVKGRFTISRDNSKNTLYLQMNSLRAEDTAVYYCARDDYYGSGSFNSYYGTDVWGQGTTVTVSS
VL: EIVLTQSPATLSLSPGERATLSCRASQSVSIYLAWYQQKPGQAPRLLIYDASNRATGIPARFSGSGSGTDFTLTISSLEPEDFAVYYCQQRSNWPPFTFGPGTKVDIKR
notes: Used biotinylated for immunohistochemistry; In flow cytometry it was detected with a secondary APC-conjugated human IgG-Fc antibody; also called CTX181 antibody; CTX181 Ab
binding result [1]: binds | binding result (murine PTK7): binds
